Results as given in patent US7262005.

Molecular target: Fas receptor (UniProt P25445)
Experiment: cell-based or functional assay

Sequence of Fas receptor (P25445 26-335 limits assumed): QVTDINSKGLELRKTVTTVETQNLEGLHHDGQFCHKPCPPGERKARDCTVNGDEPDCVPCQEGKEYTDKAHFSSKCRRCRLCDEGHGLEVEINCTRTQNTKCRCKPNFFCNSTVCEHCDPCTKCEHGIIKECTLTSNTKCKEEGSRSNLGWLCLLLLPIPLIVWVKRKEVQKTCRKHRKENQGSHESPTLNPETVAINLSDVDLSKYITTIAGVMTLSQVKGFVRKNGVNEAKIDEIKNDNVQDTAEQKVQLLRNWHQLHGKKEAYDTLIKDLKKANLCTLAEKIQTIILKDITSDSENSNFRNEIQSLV

460/530 emission ratio, + αFas/+ chx, Jurkat cells expressing 2XUb-DEVD-Bla, 50 ng/ml anti-Fas IgM for 6 hours (460/530 emission ratio): 0.67 | EC50 of caspase activation in Jurkat cells expressing 2XUb-DEVD-Bla (β-lactamase activity, CCF2 460/530 nm ratio after cycloheximide chase): 0.011 µg/mL
Substance: CH-11 anti-Fas IgM (antibody)
